Test results: PMC8684735

Target: chicken F-actin (chicken) (UniProt P68139)
Experiment: co-sedimentation

Row | Substance | Kd [nM]
1 | Drosophila indirect flight muscle myosin isoform (IFI) subfragment-1 (S1), S532P mutant (domain or fragment) | 2000
2 | Drosophila indirect flight muscle myosin isoform (IFI) subfragment-1 (S1), wild-type control (domain or fragment) | 1260
